In the first assay the target is HLA-A*02:06. The assay can be described thus: IEDB peptide-MHC binding, purified MHC/competitive/radioactivity; filed as Kd, often an IC50 or EC50 that approximates it; ≥ and ≤ were set here for values at or beyond the usual limits of such assays. The note with it: source organism: Vaccinia virus WR.
On to QQNNSFIIST, for which the equilibrium dissociation constant (Kd) (in general, the equilibrium constant for the complex coming apart) was 5710 nM.

For ELEKCTSEI, the equilibrium dissociation constant (Kd) is no less than 57900 nM. Regarding AILHNIYRL, the Kd amounted to 43.8 nM. Still for that read-out and setting: under TIAHINTLI stands 571 nM. Still for that read-out and setting: under NVIGLIVIL stands 15.1 nM; under VIPFDDIVRT, 18200 nM; under LTNAISSRV, 145 nM. The same measure, in the same setting: under EMQLKIDKLT stands no less than 69800 nM. As to DVQRTRCKYV, the dissociation constant (Kd) was determined as 9510 nM. YVVIVENDNV: the equilibrium dissociation constant (Kd) worked out at 59.7 nM. On the same count and under the same terms, for NTISGNIYSA the value was 393 nM; for YVSPTEMVDV, 5.16 nM; for QIMECSRML, 948 nM.

Another assay concerns the target HLA-A*02:02. The assay is described as above. The note with it: source organism: Lymphocytic choriomeningitis virus (strain Armstrong).
In the case of FSLGAAVKA, the Kd is 6460 nM.

Still in this assay, the particulars now being: source organism: Mammarenavirus tacaribeense.
Turning to MNNVVQALT, the Kd amounted to 2280 nM.

Staying with this assay, now noted: source organism: Mammarenavirus whitewaterense.
Regarding LNASYITPYV, the Kd stood at 33.2 nM.

Still in this assay, the particulars now being: source organism: SARS coronavirus Tor2.
MVMCGGSLYV: the Kd came out at 15.1 nM. Same read-out and setting: under MLIIFWFSL stands 132 nM; under FLCLFLLPSL, 0.531 nM; under FLNRFTTTL, 0.659 nM.

Staying with this assay, now noted: source organism: Vaccinia virus Copenhagen.
LIAGIILLIL: the dissociation constant Kd is 141 nM.

The same assay, now with this note: source organism: Vaccinia virus WR.
For the sequence ALWDSNFFT, the dissociation constant (Kd) turned out to be 1060 nM. The same measure, in the same setting: for NITHTNITTL the value was 10400 nM; for ELVMDKNHAI, 14200 nM.

Turning to LAYYNSCMLT, the dissociation constant Kd amounted to 12.1 nM. Still for that read-out and setting: under ETIQKDINI stands no less than 36600 nM. Same read-out and setting: under GLYIPGTSV stands 111 nM; under NVDVGCLLT, 9850 nM; under TVGMSIVCIV, 528 nM. Same read-out and setting: for VMDTLNGIMM the value was 7.64 nM; for SLSNLDFRL, 1310 nM; for SIVCIVAAV, 3.91 nM. As for ALKNSQAEL, the Kd is 70.9 nM.

DIKYISRDEL: the dissociation constant Kd was determined as 2550 nM. For the sequence NILGGVLHT, the Kd is no less than 77800 nM. With EMVEYLENQL, the Kd was 212 nM. On to KIQLFSDFTI, for which the dissociation constant (Kd) is no less than 70000 nM. The same measure, in the same setting: for KINNNRIVAM the value was 9120 nM; for NIYRLFTRCA, 9890 nM.

Turning to IMRNFLRSIA, the Kd was 59.9 nM.

With PTIEDDKIVT, the equilibrium dissociation constant (Kd) was 13800 nM. Consider PMSRLFMDEI, for which the dissociation constant (Kd) worked out at 1930 nM. Same read-out and setting: under PLHIVCSKTV stands no less than 34500 nM. The same measure, in the same setting: under FVATFRDMLL stands 0.697 nM; under EIDVSEVKT, no less than 46000 nM. Regarding DIIDLLLPST, the equilibrium dissociation constant (Kd) came out at 14500 nM. On the same count and under the same terms, under GIKGLDERFV stands 6190 nM; under RIITILQDIV, 595 nM; under SVDIETAIRA, 2830 nM. On the same count and under the same terms, under SILNNPVDT stands no less than 47100 nM; under DITNILGGVL, 12300 nM. On the same count and under the same terms, under ALTDVEKRIL stands 96.9 nM; under GVSGLYIPGT, 140 nM. On to VIIMAINVFT, for which the dissociation constant Kd was determined as 320 nM. Still for that read-out and setting: for QQNNSFIIST the value was 7000 nM; for ELEKCTSEI, no less than 21100 nM. On the same count and under the same terms, for AILHNIYRL the value was 106 nM; for TIAHINTLI, 21.4 nM. Same read-out and setting: under NVIGLIVIL stands 84.9 nM. Regarding VIPFDDIVRT, the dissociation constant (Kd) is no less than 62700 nM. As for LTNAISSRV, the Kd amounted to 146 nM.

For the sequence EMQLKIDKLT, the equilibrium dissociation constant (Kd) worked out at 9660 nM. On to DVQRTRCKYV, for which the equilibrium dissociation constant (Kd) is 1070 nM.

For YVVIVENDNV, the Kd is 2330 nM. Take NTISGNIYSA: the dissociation constant (Kd) is 269 nM. The same measure, in the same setting: for YVSPTEMVDV the value was 63.3 nM.

For the sequence QIMECSRML, the dissociation constant Kd is 620 nM.

The next assay concerns the target HLA-B*07:02. In words: IEDB peptide-MHC binding, purified MHC/direct/fluorescence; filed as Kd, often an IC50 or EC50 that approximates it; ≥ and ≤ were set here for values at or beyond the usual limits of such assays. The following applies: source organism: Brucella suis.
Regarding LTLKPCHAL, the Kd amounted to 1960 nM.

For the next assay, the target named is HLA-A*02:01. The description is as above. The following applies: source organism: Bacillus anthracis.
The sequence KMNNDVFFM showed a Kd of 2.3 nM.

Staying with this assay, now noted: source organism: Brucella suis.
Sequence LTLKPCHAL came in with a dissociation constant (Kd) of 4760 nM.

Still in this assay, the particulars now being: source organism: Escherichia coli O157:H7.
Turning to VLFIHPLDA, the Kd worked out at 64.9 nM.

The assay is the same for the next values; noted with them: source organism: Mammarenavirus lassaense.
The sequence TLKDAMLQL displayed a Kd of 116 nM.

The assay is the same for the next values; noted with them: source organism: SARS-CoV1.
For the sequence TLVPQEHYV, the dissociation constant Kd is 119 nM. The same measure, in the same setting: under ILGTVSWNL stands 382 nM.

Still in this assay, the particulars now being: source organism: Vibrio cholerae.
For the sequence KLSNAKWLA, the Kd came to 413 nM.

In the next assay the target is HLA-A*69:01. The assay is described as above. The note with it: source organism: Bacillus anthracis.
Turning to KMNNDVFFM, the Kd is 618 nM.

The assay is the same for the next values; noted with them: source organism: Brucella suis.
LTLKPCHAL displayed a Kd of 546 nM.

The same assay, now with this note: source organism: Escherichia coli O157:H7.
VLFIHPLDA registered an equilibrium dissociation constant (Kd) of no less than 20000 nM.

The assay is the same for the next values; noted with them: source organism: SARS-CoV1.
In turn, TLVPQEHYV registered an equilibrium dissociation constant (Kd) of 79.5 nM. The same measure, in the same setting: under ILGTVSWNL stands no less than 22900 nM.

A further assay has as its target HLA-A*11:01. The description is as above. The following applies: source organism: Brucella suis.
The sequence LTLKPCHAL showed a Kd of 18000 nM.

The assay is the same for the next values; noted with them: source organism: SARS-CoV1.
Sequence ASHFISNSW registered a Kd of no less than 53000 nM. On the same count and under the same terms, for TLVPQEHYV the value was no less than 43200 nM.

In the next assay the target is HLA-B*58:01. Described as above. The note with it: source organism: Mammarenavirus lassaense.
Sequence STAIELGAW came in with a Kd of 13.3 nM.

The same assay, now with this note: source organism: SARS-CoV1.
ASHFISNSW returned an equilibrium dissociation constant (Kd) of 72 nM. With ILGTVSWNL, the equilibrium dissociation constant (Kd) was 804 nM.

For the next assay, the target named is HLA-A*31:01. The assay is described as above. The following applies: source organism: Entamoeba histolytica HM-1:IMSS.
Turning to KYWRQMIIK, the dissociation constant (Kd) is 24.9 nM.

The same assay, now with this note: source organism: Escherichia coli.
Take RRNNRVFFR: the Kd worked out at 17.7 nM.

Staying with this assay, now noted: source organism: Pseudomonas aeruginosa.
For LQKVPHTRY, the Kd is 17200 nM.

The assay is the same for the next values; noted with them: source organism: Vibrio cholerae.
For the sequence KLSNAKWLA, the Kd came to 1630 nM.

In a further assay the target is HLA-A*03:01. Described as above. The following applies: source organism: Entamoeba histolytica HM-1:IMSS.
In turn, KYWRQMIIK yielded an equilibrium dissociation constant (Kd) of no less than 20000 nM.

The assay is the same for the next values; noted with them: source organism: Escherichia coli.
As to RRNNRVFFR, the Kd was no less than 20000 nM.

In another assay the target is HLA-B*15:01. Described as above. The note with it: source organism: Pseudomonas aeruginosa.
The sequence LQKVPHTRY had a Kd of 476 nM.

Staying with this assay, now noted: source organism: SARS-CoV1.
Consider ASHFISNSW, for which the Kd is 11400 nM.

Still in this assay, the particulars now being: source organism: Vibrio cholerae.
The sequence KLSNAKWLA yielded an equilibrium dissociation constant (Kd) of 1630 nM.

(Values after the Immune Epitope Database (IEDB).)
